Patent US7732183B2, “Method for refolding enzymes” (Elan Pharmaceuticals, Inc., priority 2001, dated 2010)
Values joined by “and” are separate entries in the source; they are usually repeats but may differ in a detail not shown here. Equal entries are not always repeated.

How the values were obtained:
Format in all cases: biochemical
[1] = target: T1, substrate SEISY↓EVEFRWKK [SEQ ID NO:9] or GLTNIKTEEISEISY↓EVEFRWKK [SEQ ID NO:10] (Homo sapiens, UniProt P56817); experiment: BACE activity assay: HPLC with fluorescence detection of peptide substrate cleavage; details: relative to CHO BACE, Example 5 optimized refolding method
T1 construct: made in house; control enzyme from CHO cells
Description: (§1) Peptide substrates SEISY↓EVEFRWKK [SEQ ID NO: 9] and GLTNIKTEEISEISY↓EVEFRWKK [SEQ ID NO: 10] were synthesized by solid-phase technology (arrows indicating cleavage site). The assay mixture contained in a volume of 200 μl, 0.1 M Sodium acetate, pH 5.0, 0.5-20 nM BACE and 25 μM substrate SEISY↓EVEFRWKK [SEQ ID NO:9] or GLTNIKTEEISEISY↓EVEFRWKK [SEQ ID NO:10]. The reaction mixture was incubated for 2 hours at 37° C.; reactions were stopped with 100 μl of 4% TFA in H2O. A 50 μl portion was injected into an Agilent 1100 Series HPLC equipped with an Alltech Rocket™ column (7 mm i.d.×53 mm length, C18, 3 μm) pre-equilibrated with 88% reagent A (0.1% TFA in water), 12% reagent B (0.1% TFA in acetonitrile). The flow rate over this column was 3 ml per minute. The products (including uncleaved substrate) were eluted from the column with the following linear gradients:
(§2) The Agilent 1100 Series HPLC is equipped with a fluorescence detector that allows detection of the substrate disappearance and EVEFRWKK [SEQ ID NO:29] product formation. Activity was expressed as Fluorescence peak area generated by the liberation of a fluorescent (Tryptophan fluorescence) product upon cleavage of substrate. Fluorescence detection is monitored at 348 nM upon excitation at 280 nm.

[2] = system: GLTNIKTEEISEISY-↓-EVEFRWKK [SEQ ID NO: 10]; experiment: Kinetic comparison of CHO and E. coli BACE (Vmax, kcat, Km); details: substrate SEQ ID NO: 10, 1 to 300 μM; pH 5.5, 50 mM NaCl, 37° C., 1 h, enzyme 1 nM
[3] = system: SEISY-↓-EVEFRWKK [SEQ ID NO: 9]; experiment: as above; details: substrate SEQ ID NO: 9, 1 to 300 μM; pH 5.5, 50 mM NaCl, 37° C., 1 h, enzyme 1 nM
[4] = system: substrate SEISY↓EVEFRWKK [SEQ ID NO:9] or GLTNIKTEEISEISY↓EVEFRWKK [SEQ ID NO:10]; experiment: BACE activity assay: HPLC with fluorescence detection of peptide substrate cleavage; details: for Activity %: relative to recombinant BACE expressed in CHO cells (=100), E. coli enzymes refolded as in Example 4 and purified
Description: as §1, §2

[5] = target: T2, EIDL-↓-MVLDWHDR [SEQ ID NO: 13] (Homo sapiens, UniProt P56817); experiment: Kinetic comparison of CHO and E. coli BACE (Vmax, kcat, Km); details: substrate SEQ ID NO: 13, 1 to 300 μM; pH 5.5, 50 mM NaCl, 37° C., 1 h, enzyme 1 nM
T2 construct: made in house; host or cells: CHO cells, purified from conditioned media

B1: pQE70-BACE: (M)R36 to S432 BACE-RS(His)6 lacking prosequence, SEQ ID NO:3, expressed in E. coli and refolded (protein, listed as Homo sapiens)
chain: MRGSFVEMVDNLRGKSGQGYYVEMTVGSPPQTLNILVDTGSSNFAVGAAPHPFLHRYYQRQLSSTYRDLRKGVYVPYTQGKWEGELGTDLVSIPHGPNVTVRANIAAITESDKFFINGSNWEGILGLAYAEIARPDDSLEPFFDSLVKQTHVPNLFSLQLCGAGFPLNQSEVLASVGGSMIIGGIDHSLYTGSLWYTPIRREWYYEVIIVRVEINGQDLKMDCKEYNYDKSIVDSGTTNLRLPKKVFEAAVKSIKAASSTEKFPDGFWLGEQLVCWQAGTTPWNIFPVISLYLMGEVTNQSFRITILPQQYLRPVEDVATSQDDCYKFAISQSSTGTVMGAVIMEGFYVVFDRARKRIGFAVSACHVHDEFRTAAVEGPFVTLDMEDCGYNIPQTDESRSHHHHHH
modifications: His6 tag
Which Activity % ([1]; first elution from affinity column) does the source give for B1 here?
The Activity % was 171%.

And the Activity % ([1]; second elution from affinity column)?
The Activity % was 125%.

What about the Km [2] of the same molecule?
The Km was 5.4 µM.

And the Vmax [2]?
Its Vmax is 0.400 µmol/min/mg.

And the kcat [2]?
Its kcat is 0.317 s⁻¹.

And the Km [3]?
The Km was 55.5 µM.

And the Vmax [3]?
Its Vmax is 0.345 µmol/min/mg.

What about the kcat [3] of the same molecule?
Its kcat is 0.273 s⁻¹.

B2: pET11a-BACE: T7 tag-GSM-BACE (A-8 to S432), SEQ ID NO:5, expressed in E. coli and refolded (protein, listed as Homo sapiens)
chain: MASMTGGQQMGRGSMAGVLPAHGTQHGIRLPLRSGLGGAPLGLRLPRETDEEPEEPGRRGSFVEMVDNLRGKSGQGYYVEMTVGSPPQTLNILVDTGSSNFAVGAAPHPFLHRYYQRQLSSTYRDLRKGVYVPYTQGKWEGELGTDLVSIPHGPNVTVRANIAAITESDKFFINGSNWEGILGLAYAEIARPDDSLEPFFDSLVKQTHVPNLFSLQLCGAGFPLNQSEVLASVGGSMIIGGIDHSLYTGSLWYTPIRREWYYEVIIVRVEINGQDLKMDCKEYNYDKSIVDSGTTNLRLPKKVFEAAVKSIKAASSTEKFPDGFWLGEQLVCWQAGTTPWNIFPVISLYLMGEVTNQSFRITILPQQYLRPVEDVATSQDDCYKFAISQSSTGTVMGAVIMEGFYVVFDRARKRIGFAVSACHVHDEFRTAAVEGPFVTLDMEDCGYNIPQTDES
modifications: T7 tag
How did the Activity % [4] turn out when B2 was run?
Its Activity % is 47%.

And the Activity % ([4]; listed as pET11a BACE)?
Its Activity % is “about 47%”.

And the Activity % ([4]; listed as recombinant BACE)?
The Activity % was 28%.

B3: PcDNA3.1Asp2LΔTM(His)6: Recombinant human BACE lacking transmembrane domain, His6 tag, expressed in CHO cells (control), SEQ ID NO:23 (protein, listed as Homo sapiens)
chain: MAQALPWLLLWMGAGVLPAHGTQHGIRLPLRSGLGGAPLGLRLPRETDEEPEEPGRRGSFVEMVDNLRGKSGQGYYVEMTVGSPPQTLNILVDTGSSNFAVGAAPHPFLHRYYQRQLSSTYRDLRKGVYVPYTQGKWEGELGTDLVSIPHGPNVTVRANIAAITESDKFFINGSNWEGILGLAYAEIARPDDSLEPFFDSLVKQTHVPNLFSLQLCGAGFPLNQSEVLASVGGSMIIGGIDHSLYTGSLWYTPIRREWYYEVIIVRVEINGQDLKMDCKEYNYDKSIVDSGTTNLRLPKKVFEAAVKSIKAASSTEKFPDGFWLGEQLVCWQAGTTPWNIFPVISLYLMGEVTNQSFRITILPQQYLRPVEDVATSQDDCYKFAISQSSTGTVMGAVIMEGFYVVFDRARKRIGFAVSACHVHDEFRTAAVEGPFVTLDMEDCGYNIPQTDESHHHHHH
modifications: His6 tag; Human soluble BACE with 6-His tag
How did the Activity % [4] turn out when B3 was run?
The Activity % was 100%.

And the Km [2]?
The Km was 4.9 µM.

What about the Vmax [2] of the same molecule?
Its Vmax is 0.435 µmol/min/mg.

And the kcat [2]?
The kcat was 0.345 s⁻¹.

And the Km [3]?
The Km was 52 µM.

And the Vmax [3]?
The Vmax was 0.294 µmol/min/mg.

What about the kcat [3] of the same molecule?
Its kcat is 0.233 s⁻¹.

What about the Km [5] of the same molecule?
The Km was 12 µM.

And the Vmax [5]?
Its Vmax is 0.0196 µmol/min/mg.

And the kcat [5]?
Its kcat is 0.0155 s⁻¹.

B4: PcDNA3.1Asp2LΔTM(His)6 + HIV Pr: CHO-expressed BACE cleaved with HIV-1 protease, SEQ ID NO:32 (protein, listed as Homo sapiens)
chain: VEMVDNLRGKSGQGYYVEMTVGSPPQTLNILVDTGSSNFAVGAAPHPFLHRYYQRQLSSTYRDLRKGVYVPYTQGKWEGELGTDLVSIPHGPNVTVRANIAAITESDKFFINGSNWEGILGLAYAEIARPDDSLEPFFDSLVKQTHVPNLFSLQLCGAGFPLNQSEVLASVGGSMIIGGIDHSLYTGSLWYTPIRREWYYEVIIVRVEINGQDLKMDCKEYNYDKSIVDSGTTNLRLPKKVFEAAVKSIKAASSTEKFPDGFWLGEQLVCWQAGTTPWNIFPVISLYLMGEVTNQSFRITILPQQYLRPVEDVATSQDDCYKFAISQSSTGTVMGAVIMEGFYVVFDRARKRIGFAVSACHVHDEFRTAAVEGPFVTLDMEDCGYNIPQTDESHHHHHH
modifications: His6 tag; HIV Protease treated BACE Asp2-2L-TM-His6
Which results are given for B4?
more enzymatic activity than untreated BACE ([4]; BACE expressed in CHO cells, HIV-1 protease treated and purified): 10-20%; Activity % [4]: 120%

B5: pET11a-BACE + HIV Pr: V40 to S432 BACE fragment, SEQ ID NO:31, obtained by HIV-1 protease treatment of pET11a-BACE (protein, listed as Homo sapiens)
chain: VEMVDNLRGKSGQGYYVEMTVGSPPQTLNILVDTGSSNFAVGAAPHPFLHRYYQRQLSSTYRDLRKGVYVPYTQGKWEGELGTDLVSIPHGPNVTVRANIAAITESDKFFINGSNWEGILGLAYAEIARPDDSLEPFFDSLVKQTHVPNLFSLQLCGAGFPLNQSEVLASVGGSMIIGGIDHSLYTGSLWYTPIRREWYYEVIIVRVEINGQDLKMDCKEYNYDKSIVDSGTTNLRLPKKVFEAAVKSIKAASSTEKFPDGFWLGEQLVCWQAGTTPWNIFPVISLYLMGEVTNQSFRITILPQQYLRPVEDVATSQDDCYKFAISQSSTGTVMGAVIMEGFYVVFDRARKRIGFAVSACHVHDEFRTAAVEGPFVTLDMEDCGYNIPQTDES
modifications: BACE V40- S432 fragment
What does the source list for B5?
increase in enzyme activity after HIV-1 protease treatment versus untreated enzyme ([4]; HIV-1 protease cleavage at F39-V40, then purification): about 5 fold; Activity % [4]: 248%; Activity % ([4]; listed as V^40 . . . S^432): 248% and 222%

B6: pQE80L-BACE + HIV Pr: V40 to S432 BACE fragment, SEQ ID NO:31, obtained by HIV-1 protease treatment of pQE80L-BACE (protein, listed as Homo sapiens)
chain: B5 chain
modifications: BACE V40- S432 fragment
B6 was tested. Which Activity % [4] did it give?
Its Activity % is 222%.
